# Data: patent US20140212458A1
# Values joined by “and” are separate entries in the source; they are usually repeats but may differ in a detail not shown here. Equal entries are not always repeated.
# Key:
# [1] = molecular target: BG505 SOSIP.664-D7324 gp140 trimer (HIV-1 BG505 (clade A)); assay: D7324-capture ELISA, average of 2-6 titrations
# [2] = molecular target: BG505 SOSIP.664 gp140 trimer (HIV-1 BG505 (clade A)); assay: ITC, two-site model
# [3] = molecular target: BG505 SOSIP.664 gp140 trimer (HIV-1 BG505 (clade A)); assay: ITC, antibody titrated into trimer
# [4] = molecular target: BG505 SOSIP.664-D7324 gp140 trimer (HIV-1 BG505 (clade A)); assay: D7324-capture ELISA (panel A)
# [5] = molecular target: BG505 gp120-D7324 monomer (HIV-1 BG505 (clade A)); assay: D7324-capture ELISA (panel A)
# [6] = molecular target: BG505 SOSIP.664-D7324 gp140 trimer (HIV-1 BG505 (clade A)); assay: D7324-capture ELISA (panel B)
# [7] = molecular target: BG505 SOSIP.664 gp140 trimer (HIV-1 BG505 (clade A)); assay: negative stain EM, 2D class averages; Fab 240 nM, trimer 14 nM
# [8] = molecular target: BG505 SOSIP.664 gp140 trimer (HIV-1 BG505 (clade A)); assay: negative stain EM
# [9] = molecular target: BG505 SOSIP.664 gp140 trimer (HIV-1 BG505 (clade A)); assay: negative stain EM, 2D class averages; Fab 600 nM, trimer 40 nM
# [10] = molecular target: BG505 gp120-D7324 monomer in the presence of sCD4 (HIV-1 BG505 (clade A)); assay: D7324-capture ELISA with sCD4 (panel B)
# [11] = molecular target: BG505 gp41ECTO-His (HIV-1 BG505 (clade A)); assay: Ni-NTA-capture ELISA (panel C)
# [12] = molecular target: BG505 SOSIP.664 gp140 trimer (HIV-1 BG505 (clade A)); assay: negative stain EM, 2D class averages; Fab 860 nM, trimer 48 nM
# [13] = molecular target: recombinant HIV-1 envelope glycoprotein gp120 BG505 clade A (HIV-1 BG505 (clade A)); assay: ELISA on BG505 gp120
# [14] = molecular target: BG505 SOSIP.664-D7324 gp140 trimer (HIV-1 BG505 (clade A)); assay: D7324-capture ELISA (panel D)
# [15] = molecular target: BG505 SOSIP.664 gp140 trimer (HIV-1 BG505 (clade A)); assay: ITC
# [16] = molecular target: BG505 gp120 monomer (HIV-1 BG505 (clade A)); assay: ITC
# [17] = molecular target: BG505 SOSIP.664 gp140 trimer (HIV-1 BG505 (clade A)); assay: ITC; remark: listed apart in the source
# [18] = molecular target: BG505 SOSIP.664 gp140 trimer (HIV-1 BG505 (clade A)); assay: ITC, Fab titrated into Env, 25 C
# [19] = molecular target: BG505 gp120 monomer (HIV-1 BG505 (clade A)); assay: ITC, Fab titrated into Env, 25 C
# [20] = molecular target: BG505 SOSIP.664 gp140 trimer (HIV-1 BG505 (clade A)); assay: SDS-PAGE of SEC fractions, ImageJ
# [21] = molecular target: BG505 SOSIP.664 gp140 trimer (HIV-1 BG505 (clade A)); assay: ITC, Fab titrated into trimer; footnote f: data previously described elsewhere (Julien 2013, the applicants' own PG9:trimer study, also an example of this filing)
# [22] = molecular target: BG505 SOSIP.664 gp140 trimer (HIV-1 BG505 (clade A)); assay: negative stain EM (not shown)
# [23] = molecular target: BG505 SOSIP.664-His gp140 trimer (HIV-1 BG505 (clade A)); assay: SPR, trimer on NTA chip, IgG 1,000 nM
# [24] = molecular target: JR-FL gp120 core with mini V3 (HIV-1 JR-FL); assay: ITC
# [25] = molecular target: BG505 SOSIP.664-His gp140 trimer (HIV-1 BG505 (clade A)); assay: Ni-NTA-capture ELISA (panel C)
# [26] = molecular target: BG505 SOSIP.664 gp140 trimer (HIV-1 BG505 (clade A)); assay: negative stain EM, 2D class averages; Fab 480 nM, trimer 44 nM
substance,measurement,setting,value
1NC9 (antibody),EC50,[1],0.735 µg/mL
2G12 (antibody),"Kd2 (second, low affinity binding event)",[2],12.3 µM
same,-TΔS,[3],28.4 kcal/mol
same,Kd,[3],16 nM and 2.4 µg/mL
same,N (stoichiometry of binding),[3],2.4
same,ΔG,[3],-10.6 kcal/mol
same,ΔH,[3],-39 kcal/mol
same,EC50 (read off the curve),[4],0.02 µg/mL
same,EC50 (read off the curve),[5],0.01 µg/mL
same,EC50,[1],0.027 µg/mL
3BC176 (antibody),EC50,[1],5.65 µg/mL
3BC315 (antibody),EC50,[1],0.962 µg/mL
3BNC60 (antibody),EC50 (read off the curve),[6],0.03 µg/mL
same,EC50,[1],0.095 µg/mL
3BNC117 (antibody),EC50 (read off the curve),[6],0.1 µg/mL
same,EC50,[1],0.102 µg/mL
7B2 (antibody),EC50,[1],> 10 µg/mL
8ANC195 (antibody),EC50,[1],2.06 µg/mL
12A12 (antibody),EC50,[1],0.08 µg/mL
14e Fab,% 1 Fab bound,[7],17%
same,% 2 Fabs bound,[7],2%
same,% 3 Fabs bound,[7],0%
same,% trimer alone,[7],81%
same,"particles, 1 Fab bound",[7],4440 particles
same,"particles, 2 Fabs bound",[7],610 particles
same,"particles, 3 Fabs bound",[7],0 particles
same,"particles, trimer alone",[7],21900 particles
19b Fab,"% of trimers occupied by one, two or three Fabs",[8],39%
same,% 1 Fab bound,[9],30%
same,% 2 Fabs bound,[9],8%
same,% 3 Fabs bound,[9],1%
same,% trimer alone,[9],61%
same,"particles, 1 Fab bound",[9],12500 particles
same,"particles, 2 Fabs bound",[9],3050 particles
same,"particles, 3 Fabs bound",[9],211 particles
same,"particles, trimer alone",[9],25100 particles
45-46 (antibody),EC50,[1],0.127 µg/mL
A32 (antibody),EC50 (read off the curve),[10],0.04 µg/mL
same,EC50,[1],> 10 µg/mL
CD4-IgG2 (Fc fusion),EC50,[1],0.155 µg/mL
CH01 (antibody),EC50,[1],2.78 µg/mL
CH31 (antibody),EC50,[1],0.347 µg/mL
CH103 (antibody),EC50,[1],0.792 µg/mL
CH106 (antibody),EC50,[1],2.57 µg/mL
F91 (antibody),EC50,[1],> 10 µg/mL
F105 (antibody),EC50,[1],> 10 µg/mL
F240 (antibody),EC50 (read off the curve),[11],0.01 µg/mL
same,EC50,[1],> 10 µg/mL
F240 Fab,% 1 Fab bound,[12],2%
same,% 2 Fabs bound,[12],0%
same,% 3 Fabs bound,[12],0%
same,% trimer alone,[12],98%
same,"particles, 1 Fab bound",[12],154 particles
same,"particles, 2 Fabs bound",[12],0 particles
same,"particles, 3 Fabs bound",[12],0 particles
same,"particles, trimer alone",[12],6260 particles
HJ16 (antibody),EC50,[1],4.38 µg/mL
PG9 (antibody),EC50 (read off the curve),[13],0.04 µg/mL
same,EC50 (read off the curve),[14],0.4 µg/mL
same,EC50,[1],0.343 µg/mL
PG9 Fab,Kd,[15],20 to 30 nM
same,Kd,[16],20 to 30 nM
same,Kd,[17],30 nM
same,ΔG,[18],-10.1 kcal/mol
same,ΔH,[18],-20.6 kcal/mol
same,-TΔS,[19],17.2 kcal/mol
same,Kd,[19],31 nM
same,N (stoichiometry of binding),[19],0.4
same,ΔG,[19],-10.2 kcal/mol
same,ΔH,[19],-27.4 kcal/mol
same,gp140 protomers per PG9 Fab,[20],3
same,-TΔS,[21],7.8 kcal/mol
same,Kd,[21],11 nM and 0.55 µg/mL
same,N (stoichiometry of binding),[21],0.8
same,ΔG,[21],-10.9 kcal/mol
same,ΔH,[21],-18.7 kcal/mol
PG16 (antibody),EC50 (read off the curve),[13],0.2 µg/mL
same,EC50 (read off the curve),[14],0.1 µg/mL
same,EC50,[1],0.199 µg/mL
PGT121 (antibody),EC50 (read off the curve),[6],0.09 µg/mL
same,EC50,[1],0.095 µg/mL
PGT121 Fab,-TΔS,[3],20.6 kcal/mol
same,Kd,[3],151 nM and 7.55 µg/mL
same,N (stoichiometry of binding),[3],2.4
same,ΔG,[3],-9.3 kcal/mol
same,ΔH,[3],-29.9 kcal/mol
PGT122 (antibody),EC50,[1],0.159 µg/mL
PGT122 Fab,% of images with no Fabs bound,[22],< 3%
same,% of images with three Fabs bound,[22],> 50%
PGT123 (antibody),EC50,[1],0.127 µg/mL
PGT125 (antibody),EC50 (read off the curve),[6],0.04 µg/mL
same,EC50,[1],0.047 µg/mL
PGT126 (antibody),EC50 (read off the curve),[6],0.03 µg/mL
same,EC50,[1],0.026 µg/mL
PGT127 (antibody),EC50,[1],0.066 µg/mL
PGT127 Fab,N (stoichiometry of binding),[15],< 3
same,Kd,[17],70 nM
PGT128 (antibody),EC50 (read off the curve),[6],0.04 µg/mL
same,plateau response (RU),[23],750 RU
same,EC50 (read off the curve),[4],0.04 µg/mL
same,EC50 (read off the curve),[5],0.04 µg/mL
same,EC50,[1],0.058 µg/mL
PGT128 Fab,"Kd2 (second, low affinity binding event)",[2],20 µM
same,-TΔS,[3],11.6 kcal/mol
same,Kd,[3],5.7 nM and 0.285 µg/mL
same,N (stoichiometry of binding),[3],2.3
same,ΔG,[3],-11.2 kcal/mol
same,ΔH,[3],-22.8 kcal/mol
PGT130 (antibody),EC50,[1],0.524 µg/mL
PGT135 (antibody),EC50,[1],0.521 µg/mL
PGT135 Fab,Kd,[24],82 nM
same,% of images with no Fabs bound,[22],< 3%
same,% of images with three Fabs bound,[22],> 50%
PGT136 (antibody),EC50,[1],0.434 µg/mL
PGT145 (antibody),EC50 (read off the curve),[14],0.06 µg/mL
same,EC50,[1],0.114 µg/mL
PGV04 (antibody),EC50,[1],0.227 µg/mL
PGV04 Fab,% of images with no Fabs bound,[22],< 3%
same,% of images with three Fabs bound,[22],> 50%
VRC01 (antibody),EC50 (read off the curve),[25],0.03 µg/mL
same,EC50,[1],0.163 µg/mL
VRC03 (antibody),EC50 (read off the curve),[6],0.6 µg/mL
same,EC50,[1],0.647 µg/mL
VRC06 (antibody),EC50,[1],1.1 µg/mL
VRC06b (antibody),EC50 (read off the curve),[6],0.4 µg/mL
same,EC50,[1],0.345 µg/mL
X5 (antibody),EC50,[1],> 10 µg/mL
b6 (antibody),plateau response (RU),[23],30 RU
same,EC50 (read off the curve),[5],0.09 µg/mL
same,EC50,[1],0.871 µg/mL
b6 Fab,% 1 Fab bound,[26],6%
same,% 2 Fabs bound,[26],0%
same,% 3 Fabs bound,[26],0%
same,% trimer alone,[26],94%
same,"particles, 1 Fab bound",[26],354 particles
same,"particles, 2 Fabs bound",[26],0 particles
same,"particles, 3 Fabs bound",[26],0 particles
same,"particles, trimer alone",[26],5610 particles
b12 (antibody),EC50 (read off the curve),[13],0.03 µg/mL
same,EC50,[1],> 10 µg/mL
